Reference: paper PMC3964903

Molecular target: calcium/calmodulin-dependent protein kinase II (CaMKII) (mouse (endogenous in hippocampal slices)) (UniProt P11798)
UniProt P11798, sequence (P11798 whole entry): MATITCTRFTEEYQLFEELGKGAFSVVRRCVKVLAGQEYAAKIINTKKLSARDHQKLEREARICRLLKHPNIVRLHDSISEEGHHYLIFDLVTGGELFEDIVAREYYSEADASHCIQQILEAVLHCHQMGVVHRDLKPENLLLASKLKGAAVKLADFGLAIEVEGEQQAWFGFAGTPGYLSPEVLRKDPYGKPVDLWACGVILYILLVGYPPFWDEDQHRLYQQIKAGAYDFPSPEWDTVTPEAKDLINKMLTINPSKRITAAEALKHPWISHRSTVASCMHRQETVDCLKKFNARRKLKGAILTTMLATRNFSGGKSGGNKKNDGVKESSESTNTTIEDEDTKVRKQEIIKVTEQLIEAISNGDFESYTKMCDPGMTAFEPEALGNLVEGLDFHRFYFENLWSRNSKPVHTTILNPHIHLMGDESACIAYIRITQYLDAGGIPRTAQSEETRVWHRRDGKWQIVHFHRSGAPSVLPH

NMDA receptor (NMDAR) (from UniProt P35438 19-938; Q01097 27-1482) (complex)
CaMKII relative activity (Cyclex CaMKII assay kit) after 10 min OGD with Tat-GluN2B, compared with control (relative to control): 0.97
amplitude of NMDAR-mediated i-LTP (NMDA fEPSPs) in hippocampal slices exposed to OGD for 10 min with Tat-GluN2B, compared with OGD alone (relative to OGD): 0.73
